Source: the DeepSol protein solubility set

assay: soluble on expression in E. coli; label from the status in PepcDB or PDB records

Sequence | soluble on expression in E. coli
MSLRKNPYRLSDEIFGISFRTADRIAKSLGIDPYSKYRISSGIKYVLSRAATEGHTFLEEEMLKSYTSKLLDINIDSIEDALVSLVLNKSVYVDRNDGMSKIYLSSFYHAELGVCRKLVELSQVRYSADMEDFEERIKQVQKKEGIILADKQKEAIREAMTNGVLVITGGPGTGKTTIIKSIISLLESEGYEFALAAPTGRAAKRMSEATGYEAKTIHRLLEIGYTSNEDELVFMRTEDNPIEADVVIIDEMSMVDIILMYHLLKAIVCGTRLILVGDVDQLPSVGPGNVLRDIIKSGMIKTVKLSEIFRQAGESMIVVNAHRINRGEHPILNEREKDFFFVTRNSQNDILKTVVDLCTRRIPDTYGYDPMKQIQVLSPMRKGTVGVANLNIELQKVLNPEDGKEGHHHHHH | soluble
GPGMSSLSNSLPLMEDVQGIRKAQKADGTATVMAIGTAHPPHIFPQDTYADVYFRATNSEHKVELKKKFDHICKKTMIGKRYFNYDEEFLKKYPNITSYDEPSLNDRQDICVPGVPALGTEAAVKAIEEWGRPKSEITHLVFCTSCGVDMPSADFQCAKLLGLHANVNKYCIYMQGCYAGGTVMRYAKDLAENNRGARVLVVCAELTIMGLRAPNETHLDNAIGISLFGDGAAALIIGSDPIIGVEKPMFEIVCTKQTVIPNTEDVIHLHLRETGMMFYLSKGSPMTISNNVEACLIDVFKSVGITPPEDWNSLFWIPHPGGRAILDQVEAKLKLRPEKFRAARTVLWDYGNMVSASVGYILDEMRRKSAAKGLETYGEGLEWGVLLGFGPGITVETILLHSLPLM | soluble
GSGGIEGRHMVELLKLVRSSGCAAKVGPGDLQEILKGFNIYTDESTLVSIGDDAGVYEHNGIIWVYTVDIITPVVNDPYLWGAISTANALSDVYAMGGIPVNALAISCFNNCELDIEIFREVIRGALDKLREAKTVLLGGHTIDDKEPKFGLSVAGICPEGKYITQSGAQVGQLLILTKPIGTGILIKGLKEGILKEEDINEAIENMLALNDKARNLMLSLDATACTDVTGFGLLGHAWNICKNSNIGARIFFEKVPYYQLSENLVKKKIYPKGAIENLNFVKNYLKSNLDNWKLILLSDPVTSGGLLFTINKEKLEKIDETAKELEVNYWIIGETIAENVLEVL | soluble
MSLEFLQRDQAPLTAEEWEQIDKTAYEVFKSTVVCRKFMPVVGPFGAGHQVVSYDVLYGVEPGVCEVKPGQEYKVCEPVRTGERKHVPVPTLYKDFVISWRDLEHWRQFNLPVDTTGVAAAASSLAVAEDKLILFGNQEMGIEGFLTAKGTLREELSDWEKVGNAFQDVVKGISRLVEKGFYTNYYLIVNPKRYFLLNRIHDNTGLLELEQIKKVVKEVYQTPIIPEDIVLLVSASPANFDLAIALDVNVAFVETSNMNHTFRVMEMVVPRIKRPEAILIFSSEGHHHHHH | not soluble
MGSDKIHHHHHHMNVLALDTSQRIRIGLRKGEDLFEISYTGEKKHAEILPVVVKKLLDELDLKVKDLDVVGVGIGPGGLTGLRVGIATVVGLVSPYDIPVAPLNSFEMTAKSCPADGVVLVARRARKGYHYCAVYLKDKGLNPLKEPSVVSDEELEEITKEFSPKIVLKDDLLISPAVLVEESERLFREKKTIHYYEIEPLYLQKSIAELNWEKKKRG | soluble
MANDEEFFIVRCRGPSSYRESVYKYLTGQPSDWNRNSVFLRNMHVGRAKNVKEIFNCILQTQPLPVVQPCHPVRQPRESFYSSHEHDPMDEVLLQEVKEEAHSLAFKGIPIETKGPTPSSTIMNPEVTLRDVLTFHKNIKRRPQETKPAKFDFSAMPSTSRLPPTSPKRYRQFAPPPISMKQSPKICAKTVSCPSTSEVKSPPKKMIIQKIQKHQEAPKPAKVPKIKGEKKKKDGRQDEQEEIDIELKLSKSTVSSQTLKRHNISFERKPQRGI | not soluble
MVSVEDYYTSEEKICDGIFVGNYGERKGSRYLFQIWDKVNEKIDAKLCIIGKGWSEIPKNSVYYGFVTEREKIDLLAKSKVFVFPSLYEGFALAVTEALSAYLPVVTWDLKWSERYPVAIRVTYPDISSFAEEVVKLLKDEKLRKSIGEKSREL | soluble
GPGSMNQLISVINELHDAFAGVKMNIKLNLPQIAVVGSQSCGKSSVLESIVGKDFLPRGSGIVTRCPLVLQLVQLPKSNEEEWGEFLHIPNKKFYDFNEIQNEITRRTIEIAGPSAITDKPINLKVYSSAVLNLTLVDLPGLVMNAVGDQPKDIDRQIKDMVTRYVLPKNTIILAISPANTDLATSQSLRLAKQLDPEGVRTVGVLTKIDLMDKGTDCFDVLQNRVLQLRHGFVGVVCRSQQDINDCKSMEDARRSEYEFFANSPIYSPIAEEAGTAYLSKKLNFLLLEHIKAVIPDLKHHVDQLMEATKKQMEKLGMFEQDITEPTAQLLYLIKVFSDALNQTIDGGITDATKELLGGARLDYIFHECFATYVTSLSATKDLTDDYIRINTRNMAGMHATLFPSDQVFVALSKQQINRLEEPCIKCVTFVYEELGKIVEICAGKVDRYPNLKEAVIAICKKMLFDYRLPTSTHVRTIIKAERGFINVKHPMMDELAQRALSNIYGTTSGESSSPPRNSSGPNASAAGGTQADPKQSGKDIKKDDKRGVRDEKRPEKPKEQGNTDSAISPGNKSDMNDVPSRIMLGKTMTMHEQFMNSAIREMVEGYFSIVKGNVADQVPKAITLLMITRLREEVYARLVSELYSDKTAKALLSEPPGIATQRKAAKEMLEALTKAQNALNSVRDYQLTKEPASSMQAGT | soluble
VVELPKTDEGLGFNIMGGKEQNSPIYISRVIPGGVADRHGGLKRGDQLLSVNGVSVEGEQHEKAVELLKAAQGSVKLVVR | soluble
MHHHHHHENLYFQSNAMGSTRPIDGLTDEDIREILTRYKKIALVGASPKPERDANIVMKYLLEHGYDVYPVNPNYEEVLGRKCYPSVLDIPDKIEVVDLFVDPAKAWRFVVYAIKKGAKVVWFQYNTYYPLAARQAKEAGLIIVANRCMMREHERLLGEK | soluble
MTDTARKIVAQPLSAAAFAPFGQVIDTAQVASRPMNDGRARRFHDLAEIEVIGNGARVVVGLVEAEPYAVPLWLNLVERHPLGAQAFVPLNAAPFLVVVCPDESGKPGAPQAFITAPHQGVCYARNTWHSVLTPFGAAQDFVVIDRGGPGVNLEEHLFDEPWIVHLSTSGLEHHHHHH | soluble
MSLSKLGIIGLGKVGTQVLTDVQQLNLFSEIILIDDRADVASGEALDHIHSQGLINTAHIKIRSGVYQDLTDADFIVIAASEATDKNNGDRTLLAQGNHDIIKGIMSQIAEVTQEAVVILISNPVDSMVYFANQIDYPAHKIIGTGTALETSRFKTIIADHYQIDPNNVEAFVIGEHGQHAIPVWSKVHIHGMELSEFEALSDRPAIDKSHISSIINEVSMDVFYQKGWTNAAISKVTSFLIQSIALDQRTITPLTSLSSEYGLEDGAFSLPTLIDKKGIVQRFAITLDKEEERELKEAYEYIRQTIHTAQEGHHHHHH | soluble
MKVYSKDDIVEQAKELAKMISETEEVDFFKKAEAQIHKNENVKRAIDEIKALQKQAVNLQHYGKWEALKKVEAEIDALQDKLDSIPVVQQFKSSQTYVNDLLQLVASTISNNVTDEILISTGGDVLKGETGAAVESKKGNCGC | not soluble
SDKDSQGLLDSSLMASGTASRSEDEESLAGQKRASSQALGTIPKRRSSSRFIKRKKFDDELVESSLAKSSTRVKGAGGVESGRCSGSEPSSSEKKKVSKAPSTPVPPSPAPTPGLTKRVKKSKQPLQVTKDLGRWKPADDLLLINAVLQTNDLTSVHLGVKFSCRFTLREVQERWYALLYDPVISKLACQAMRQLHPEAIAAIQSKALFSKAEEQLLSKVGSSSQPTLETFQDLLHTHPDAFYLARTAKALQAHWQLMKQYYLLEDQTVQPLPKGDQVLNFSDAEDLIDDSKLKDMRDEVLEHELTVADRRQKREIRQLEQELHKWQVLVDSITGMGSPDFDNQTLAVLRGRMVRYLMRSREITLGRATKDNQIDVDLSLEGPAWKISRKQGVIKLKNNGDFFIANEGRRPIYIDGRPVLCGSKWRLSNNSVVEIASLRFVFLINQDLIALIRAEAAKITPQ | soluble
MGSDKIHHHHHHMSLEGLSINFATVRQGGNFGAIVDACLAHGITAISPWREQVHGVGLAEAARIVEQNGLRLSGHCRGGFFPAIDADGRRRAIEDNKRAVDEAAAMKADCLVLVVGGLPAGSRDLKGARQMVEDGMAKLLPYARAAGVPLAIEPLHPFYAAERACFNTLKQSLDLCDRLGAGTGVAIDVYHVWWDPELEEQVARAGRNGQILAHHICDWLVPTTDPLNDRGMMGDGVIDLKAFRAMIEAAGFHGPQEVEIFSHRWQARPMDEVLATVVERFKTVC | not soluble
MSEEKIYDVIIIGAGPAGMTAAVYTSRANLSTLMLERGIPGGQMANTEDVENYPGYESILGPDLSNKMFEHAKKFGAEYAYGDVKEVIDGKEYKTIIAGKKEYKARAIIVASGAEYKKIGVPGETELGGRGVSYCAVCDGAFFKGKELVVIGGGDSAVEEGVFLTRFASKVTIVHRRDTLRAQKILQDRAFQNEKVDFIWNHTIKEINEANGKVGSVTLVDVNSGEEKEVKTDGVFVYIGMLPLSKPFVELGITNENGYLETNERMETKVPGIFAAGDVREKMLRQIVTATGDGSIAAQSAQHYVEELLEELKTVSEK | not soluble
GPGSMKGCCRLLSAAEAASLIRRIGPFAVHRGEATGVIEILSGDPNHPVKKLNLLGLAYAAALTELSELLSEELNAEARVAIFAARDGCSFSAGIDLKELSGMRPPSGSGAAATAAASSGPKAPAMLLQHQHRVVRTFQDGISSLARCRIPIIAAIDGHCIGGATSVASSCDVRYTTTRATFSVKEAAVGLAADIGVLQRLPAIIGEGRTRELAFTCRDFSGVEAKAMGFVEEVCADYPALLAHARKRAAQIAANSPLGVQNTKLILNWERERAAQTSLEYQAAINAFSLHCSDIPEAARAFAERREPVFTDYMVNPRGGPPHSRQS | not soluble
MMIDPELRPAFLPAGKLRAAINLGNPILAGTDAAGQAVGVSVDLAREFARRLNAGIELRVFDTAGQSVDAVTREEADIGFFAIDPARGAGIAFTGPYVLIEGAYLVRDDSPLQANEDVDRAGKRVTVGKGSAYDLHLTRALQHAEIVRAASSQAVVDTFLARRLDVAAGVKQQLQADARRVGGVRLLPGRFMVIRQAMGLPKARGDAAAACLDAFVESMKGNGFVAQALARHGLEHHHHHH | not soluble
MAHHHHHHMLPILLSTLEKDESATLRERAGMALELLVREAQTQRLLLGGGSSEDAPLSTLAGKQTAPTPHLAAILASLRDESDEVVVAALRVVLACHMAHNAFSVTAALVQGGLIPVLIDLIQSTNTMTQMVACCATRQLFQVKEAHVELLKLGIVATLTKAIIKAEAVALVAEAAEVASLIAEYAQGRRDAVACGTLASLLPHLHNANLTLRVAVYSAAAQITVLEAAKVQAMEVGYPEQLVGELAREDERDVLMHMLRLIYNLAEWPTARVTLRECLPRIAELLQIAEGDEGVMFALSQADRILKKKVFPV | not soluble
MGHHHHHHSHLKDNRVVTMEVEARNLDKKDFLGKSDPFLEFFRQGDGKWHLVYRSEVIKNNLNPTWKRFSVPVQHFCGGNPSTPIQVQCSDYDSDGSHDLIGTFHTSLAQLQAVP | not soluble
MGSDKIHHHHHHMRVITVAGPPSVGKTSVVVKTATTLAAQGHRLGIVKFDSLSTSDDQVYRRAGLPVVVGLSGNVCPDHFFVSNIDDCVDWGRTHGVDILVAESAGLCNRCSPHVQGVQAICVVDNLSGVHTPRKIGPMLKLADVVVITKGDIVSQAEREVFAYNVRLANPRAQVMQFHGITGQGASDLAARMLCAPVVDALEGRRLRFSMPSAVCPYCIGETAIGVDHQRGNVRKMSFAEPAR | not soluble
